# From IntAct's records for PubMed 32494073
# B1: Calcium uptake protein 2, mitochondrial (Homo sapiens), Q8IYU8 (parent)
# chain: MAAAAGSCARVAAWGGKLRRGLAVSRQAVRSPGPLAAAVAGAALAGAGAAWHHSRVSVAARDGSFTVSAQKNVEHGIIYIGKPSLRKQRFMQFSSLEHEGEYYMTPRDFLFSVMFEQMERKTSVKKLTKKDIEDTLSGIQTAGCGSTFFRDLGDKGLISYTEYLFLLTILTKPHSGFHVAFKMLDTDGNEMIEKREFFKLQKIISKQDDLMTVKTNETGYQEAIVKEPEINTTLQMRFFGKRGQRKLHYKEFRRFMENLQTEIQEMEFLQFSKGLSFMRKEDFAEWLLFFTNTENKDIYWKNVREKLSAGESISLDEFKSFCHFTTHLEDFAIAMQMFSLAHRPVRLAEFKRAVKVATGQELSNNILDTVFKIFDLDGDECLSHEEFLGVLKNRMHRGLWVPQHQSIQEYWKCVKKESIKGVKEVWKQAGKGLF
# B2: Calcium uptake protein 1, mitochondrial (Homo sapiens), Q9BPX6 (parent)
# chain: MFRLNSLSALAELAVGSRWYHGGSQPIQIRRRLMMVAFLGASAVTASTGLLWKRAHAESPPCVDNLKSDIGDKGKNKDEGDVCNHEKKTADLAPHPEEKKKKRSGFRDRKVMEYENRIRAYSTPDKIFRYFATLKVISEPGEAEVFMTPEDFVRSITPNEKQPEHLGLDQYIIKRFDGKKISQEREKFADEGSIFYTLGECGLISFSDYIFLTTVLSTPQRNFEIAFKMFDLNGDGEVDMEEFEQVQSIIRSQTSMGMRHRDRPTTGNTLKSGLCSALTTYFFGADLKGKLTIKNFLEFQRKLQHDVLKLEFERHDPVDGRITERQFGGMLLAYSGVQSKKLTAMQRQLKKHFKEGKGLTFQEVENFFTFLKNINDVDTALSFYHMAGASLDKVTMQQVARTVAKVELSDHVCDVVFALFDCDGNGELSNKEFVSIMKQRLMRGLEKPKDMGFTRLMQAMWKCAQETAWDFALPKQ
# partner: B1 chain
# Variants of: B1
# Details: with micu1_human MICU1, Q9BPX6
row,effect of a mutation on the interaction,Variant
1,disrupting interaction strength,MAAAAGSCARVAAWGGKLRRGLAVSRQAVRSPGPLAAAVAGAALAGAGAAWHHSRVSVAARDGSFTVSAQKNVEHGIIYIGKPSLRKQRFMQFSSLEHEGEYYMTPRDFLFSVMFEQMERKTSVKKLTKKDIEDTLSGIQTAGCGSTFFRDLGDKGLISYTEYLFLLTILTKPHSGFHVAFKMLDTDGNEMIEKREFFKLQKIISKQDDLMTVKTNETGYQEAIVKEPEINTTLQMRFFGKRGQRKLHYKEFRRFMENLQTEIQEMEFLQFSKGLSFMRKEDFAEWLLFFTNTENKDIYWKNVREKLSAGESISLDEFKSFCHFTTHLEDFAIAMQMFSLAHRPVRLAEFKEAVKVATGQELSNNILDTVFKIFDLDGDECLSHEEFLGVLKNRMHRGLWVPQHQSIQEYWKCVKKESIKGVKEVWKQAGKGLF [R352E]

# Variants of: B2
# Details: with micu2_human MICU2, Q8IYU8
row,effect of a mutation on the interaction,Variant
1,with no effect,MFRLNSLSALAELAVGSRWYHGGSQPIQIRRRLMMVAFLGASAVTASTGLLWKRAHAESPPCVDNLKSDIGDKGKNKDEGDVCNHEKKTADLAPHPEEKKKKRSGFRDRKVMEYENRIRAYSTPDKIFRYFATLKVISEPGEAEVFMTPEDFVRSITPNEKQPEHLGLDQYIIKRFDGKKISQEREKFADEGSIFYTLGECGLISFSDYIFLTTVLSTPQRNFEIAFKMFDLNGDGEVDMEEFEQVQSIIRSQTSMGMRHRDRPTTGNTLKSGLCSALTTYFFGADLKGKLTIKNFLEFQRKLQHDVLKLEFERHDPVDGRITERQFGGMLLAYSGVQSKKLTAMQRQLKKHFKEGKGLTFQEVENFFTFLKNINDVDTALSFYHMAGASLDKVTMQQVARTVAKVELSDHVCDVVFALFDCDGNGELSNKEFVSIMKQRLMRGLEKPKDMGFTRLMQAMWKSAQETAWDFALPKQ [C463S]
